Results on one substance are retold here after paper PMC2775144.

In assay [1] the target is PqsD (Pseudomonas aeruginosa). In words: SEC-MALS. (Size exclusion chromatography separates by hydrodynamic size, large species first.)
Assay [2] concerns the target PqsD (Pseudomonas aeruginosa). In words: AUC.

The term stoichiometry N denotes a count of units in the complex or per binding partner.

With PqsD (enzyme), the stoichiometry N in assay [1] and in assay [2] was 2 in each case.
